We go through 3 molecules from article PMC8208582, “Crosstalk between H2A variant-specific modifications impacts vital cell functions” (PLoS Genetics, 2021).

The assay addresses T1, recombinant H2B.9 (Arabidopsis, UniProt O23629 1-150).
T1 construct: histone H2B.9 (HTB9) of Arabidopsis; source: E. coli BL21 (DE3), purified (Ni-NTA under denaturing conditions, thrombin, SP sepharose)
In words: SEC; freeze-dried histones mixed at a 1:1 molar ratio in 7 M guanidine hydrochloride, step-wise dialysed from 2 M to 0.1 M NaCl refolding buffer, Superdex200 in 0.1 M NaCl refolding buffer; peak fractions on SDS-PAGE. Particulars: both partners purified. Background: In gel filtration, larger molecules generally elute earlier.

T1 sequence (O23629 whole entry): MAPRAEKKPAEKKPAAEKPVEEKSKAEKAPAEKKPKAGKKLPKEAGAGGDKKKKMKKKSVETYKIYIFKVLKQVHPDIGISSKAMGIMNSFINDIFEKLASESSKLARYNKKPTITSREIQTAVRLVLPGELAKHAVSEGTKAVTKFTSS

B1: recombinant H2A.13 (natural protein, Arabidopsis, UniProt Q9LHQ5 1-132, looked up)
chain: MAGRGKTLGSGVAKKSTSRSSKAGLQFPVGRIARFLKNGKYATRVGAGAPVYLAAVLEYLAAEVLELAGNAARDNKKTRIVPRHIQLAVRNDEELSKLLGDVTIANGGVMPNIHSLLLPKKAGASKPSADED
notes: histone H2A.13 of Arabidopsis; source: E. coli BL21 (DE3), purified (Ni-NTA under denaturing conditions, thrombin, SP sepharose)
For B1, the binding result is recorded as “binds”.

B2: recombinant H2A.W.6 (natural protein, Arabidopsis, UniProt Q9FJE8 1-150, looked up)
chain: MESTGKVKKAFGGRKPPGAPKTKSVSKSMKAGLQFPVGRITRFLKKGRYAQRLGGGAPVYMAAVLEYLAAEVLELAGNAARDNKKSRIIPRHLLLAIRNDEELGKLLSGVTIAHGGVLPNINSVLLPKKSATKPAEEKATKSPVKSPKKA
notes: histone H2A.W.6 of Arabidopsis; source: E. coli BL21 (DE3), purified (Ni-NTA under denaturing conditions, thrombin, SP sepharose)
In the case of B2, the binding result was “binds”.

B3: recombinant H2A.W.7 (natural protein, Arabidopsis, UniProt Q94F49 1-150, looked up)
chain: MESSQATTKPTRGAGGRKGGDRKKSVSKSVKAGLQFPVGRIARYLKKGRYALRYGSGAPVYLAAVLEYLAAEVLELAGNAARDNKKNRINPRHLCLAIRNDEELGRLLHGVTIASGGVLPNINPVLLPKKSTASSSQAEKASATKSPKKA
notes: histone H2A.W.7 of Arabidopsis; source: E. coli BL21 (DE3), purified (Ni-NTA under denaturing conditions, thrombin, SP sepharose)
For B3, the binding result is listed as “binds”.
